We go through five molecules from patent publication US20250339531A1, “DUX4 POLYPEPTIDES AND NUCLEIC ACIDS FOR TREATING INFLAMMATORY AND AUTOIMMUNE CONDITIONS” (Fred Hutchinson Cancer Center, priority 2021, published 2025).

For the test, the system named is proteins that co-immunoprecipitated with DUX4-CTD constructs expressed in MB135 myoblasts. Briefly: LC-MS of proteins co-immunoprecipitated with DUX4-CTD (Table 1) and western validation. Further details: key to 4. mL1dL2 + Dox + IFNG / 4. + IFNG mix / 4. longCTD + Dox + IFNG / 3. + IFNg + Dox longCTD / 3. + Dox longCTD / 3. + IFNG longCTD: peptide-spectrum matches (PSMs) per protein. Conditions: for 4. longCTD + Dox + IFNG: LC-MS counts of the listed protein co-immunoprecipitated with DUX4-CTD bait longCTD, experiment 4, Dox + IFNG; for 3. + Dox longCTD / 3. + IFNg + Dox longCTD: bait longCTD; for 3. + Dox longCTD: experiment 3, Dox only; for 3. + IFNg + Dox longCTD: experiment 3, IFNg + Dox; for SUM of PSMS: sum over all samples. Type of test: binding, human. The procedure, abridged: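 Two independent experiments compared uninduced, doxycycline and doxycycline+IFNG MB135iDUX4-CTD (plus MB135iDUX4mL1dL2) myoblasts. Anti-FLAG pulldowns (3 h, 4 °C) were eluted in LDS buffer for western validation or with FLAG peptide for trypsin digestion and Orbitrap LC-MS; hits needed ≥2 PSMs in both experiments, ranked by total PSMs.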

B1: P68366 (protein, UniProt P68366 1-448, looked up)
chain: MRECISVHVGQAGVQMGNACWELYCLEHGIQPDGQMPSDKTIGGGDDSFTTFFCETGAGKHVPRAVFVDLEPTVIDEIRNGPYRQLFHPEQLITGKEDAANNYARGHYTIGKEIIDPVLDRIRKLSDQCTGLQGFLVFHSFGGGTGSGFTSLLMERLSVDYGKKSKLEFSIYPAPQVSTAVVEPYNSILTTHTTLEHSDCAFMVDNEAIYDICRRNLDIERPTYTNLNRLISQIVSSITASLRFDGALNVDLTEFQTNLVPYPRIHFPLATYAPVISAEKAYHEQLSVAEITNACFEPANQMVKCDPRHGKYMACCLLYRGDVVPKDVNAAIAAIKTKRSIQFVDWCPTGFKVGINYQPPTVVPGGDLAKVQRAVCMLSNTTAIAEAWARLDHKFDLMYAKRAFVHWYVGEGMEEGEFSEAREDMAALEKDYEEVGIDSYEDEDEGEE
modifications: full-length
Regarding B1, the “4. longCTD + Dox + IFNG” value is 16, the “3. + Dox longCTD” value is 14, the “3. + IFNg + Dox longCTD” value worked out at 39 and the “SUM of PSMS” value was determined as 69.

B2: Q9P2E9 (protein, UniProt Q9P2E9 1-1410, looked up)
chain: MDIYDTQTLGVVVFGGFMVVSAIGIFLVSTFSMKETSYEEALANQRKEMAKTHHQKVEKKKKEKTVEKKGKTKKKEEKPNGKIPDHDPAPNVTVLLREPVRAPAVAVAPTPVQPPIIVAPVATVPAMPQEKLASSPKDKKKKEKKVAKVEPAVSSVVNSIQVLTSKAAILETAPKEVPMVVVPPVGAKGNTPATGTTQGKKAEGTQNQSKKAEGAPNQGRKAEGTPNQGKKTEGTPNQGKKAEGTPNQGKKAEGTPNQGKKAEGAQNQGKKVDTTPNQGKKVEGAPTQGRKAEGAQNQAKKVEGAQNQGKKAEGAQNQGKKGEGAQNQGKKAEGAQNQGKKAEGAQNQGKKAEGAQNQGKKAEGAQNQGKKAEGAQNQGKKAEGAQNQGKKVEGAQNQGKKAEGAQNQGKKAEGAQNQGKKAEGAQNQGKKAEGAQNQGKKAEGAQNQGKKAEGAQNQGKKAEGAQNQGKKVEGAQNQGKKAEGAQNQGKKAEGAQNQGKKAEGAQNQGQKGEGAQNQGKKTEGAQGKKAERSPNQGKKGEGAPIQGKKADSVANQGTKVEGITNQGKKAEGSPSEGKKAEGSPNQGKKADAAANQGKKTESASVQGRNTDVAQSPEAPKQEAPAKKKSGSKKKGEPGPPDADGPLYLPYKTLVSTVGSMVFNEGEAQRLIEILSEKAGIIQDTWHKATQKGDPVAILKRQLEEKEKLLATEQEDAAVAKSKLRELNKEMAAEKAKAAAGEAKVKKQLVAREQEITAVQARMQASYREHVKEVQQLQGKIRTLQEQLENGPNTQLARLQQENSILRDALNQATSQVESKQNAELAKLRQELSKVSKELVEKSEAVRQDEQQRKALEAKAAAFEKQVLQLQASHRESEEALQKRLDEVSRELCHTQSSHASLRADAEKAQEQQQQMAELHSKLQSSEAEVRSKCEELSGLHGQLQEARAENSQLTERIRSIEALLEAGQARDAQDVQASQAEADQQQTRLKELESQVSGLEKEAIELREAVEQQKVKNNDLREKNWKAMEALATAEQACKEKLLSLTQAKEESEKQLCLIEAQTMEALLALLPELSVLAQQNYTEWLQDLKEKGPTLLKHPPAPAEPSSDLASKLREAEETQSTLQAECDQYRSILAETEGMLRDLQKSVEEEEQVWRAKVGAAEEELQKSRVTVKHLEEIVEKLKGELESSDQVREHTSHLEAELEKHMAAASAECQNYAKEVAGLRQLLLESQSQLDAAKSEAQKQSDELALVRQQLSEMKSHVEDGDIAGAPASSPEAPPAEQDPVQLKTQLEWTEAILEDEQTQRQKLTAEFEEAQTSACRLQEELEKLRTAGPLESSETEEASQLKERLEKEKKLTSDLGRAATRLQELLKTTQEQLAREKDTVKKLQEQLEKAEDGSSSKEGTSV
modifications: full-length
B2: the “4. longCTD + Dox + IFNG” value came out at 4, the “3. + Dox longCTD” value was 24, the “3. + IFNg + Dox longCTD” value stood at 68 and the “SUM of PSMS” value worked out at 112.

B3: Q9BUF5 (protein, UniProt Q9BUF5 1-446, looked up)
chain: MREIVHIQAGQCGNQIGTKFWEVISDEHGIDPAGGYVGDSALQLERINVYYNESSSQKYVPRAALVDLEPGTMDSVRSGPFGQLFRPDNFIFGQTGAGNNWAKGHYTEGAELVDAVLDVVRKECEHCDCLQGFQLTHSLGGGTGSGMGTLLISKIREEFPDRIMNTFSVMPSPKVSDTVVEPYNATLSVHQLVENTDETYCIDNEALYDICFRTLKLTTPTYGDLNHLVSATMSGVTTSLRFPGQLNADLRKLAVNMVPFPRLHFFMPGFAPLTSRGSQQYRALTVPELTQQMFDARNMMAACDPRHGRYLTVATVFRGPMSMKEVDEQMLAIQSKNSSYFVEWIPNNVKVAVCDIPPRGLKMASTFIGNSTAIQELFKRISEQFSAMFRRKAFLHWFTGEGMDEMEFTEAESNMNDLVSEYQQYQDATANDGEEAFEDEEEEIDG
modifications: full-length
Turning to B3, the “4. longCTD + Dox + IFNG” value is on record as 46, the “3. + Dox longCTD” value worked out at 20, the “3. + IFNg + Dox longCTD” value amounted to 39 and the “SUM of PSMS” value amounted to 128.

B4: SF3B3 (protein)
chain: MFLYNLTLQRATGISFAIHGNFSGTKQQEIVVSRGKILELLRPDPNTGKVHTLLTVEVFGVIRSLMAFRLTGGTKDYIVVGSDSGRIVILEYQPSKNMFEKIHQETFGKSGCRRIVPGQFLAVDPKGRAVMISAIEKQKLVYILNRDAAARLTISSPLEAHKANTLVYHVVGVDVGFENPMFACLEMDYEEADNDPTGEAAANTQQTLTFYELDLGLNHVVRKYSEPLEEHGNFLITVPGGSDGPSGVLICSENYITYKNFGDQPDIRCPIPRRRNDLDDPERGMIFVCSATHKTKSMFFFLAQTEQGDIFKITLETDEDMVTEIRLKYFDTVPVAAAMCVLKTGFLFVASEFGNHYLYQIAHLGDDDEEPEFSSAMPLEEGDTFFFQPRPLKNLVLVDELDSLSPILFCQIADLANEDTPQLYVACGRGPRSSLRVLRHGLEVSEMAVSELPGNPNAVWTVRRHIEDEFDAYIIVSFVNATLVLSIGETVEEVTDSGFLGTTPTLSCSLLGDDALVQVYPDGIRHIRADKRVNEWKTPGKKTIVKCAVNQRQVVIALTGGELVYFEMDPSGQLNEYTERKEMSADVVCMSLANVPPGEQRSRFLAVGLVDNTVRIISLDPSDCLQPLSMQALPAQPESLCIVEMGGTEKQDELGERGSIGFLYLNIGLQNGVLLRTVLDPVTGDLSDTRTRYLGSRPVKLFRVRMQGQEAVLAMSSRSWLSYSYQSRFHLTPLSYETLEFASGFASEQCPEGIVAISTNTLRILALEKLGAVFNQVAFPLQYTPRKFVIHPESNNLIIIETDHNAYTEATKAQRKQQMAEEMVEAAGEDERELAAEMAAAFLNENLPESIFGAPKAGNGQWASVIRVMNPIQGNTLDLVQLEQNEAAFSVAVCRFSNTGEDWYVLVGVAKDLILNPRSVAGGFVYTYKLVNNGEKLEFLHKTPVEEVPAAIAPFQGRVLIGVGKLLRVYDLGKKKLLRKCENKHIANYISGIQTIGHRVIVSDVQESFIWVRYKRNENQLIIFADDTYPRWVTTASLLDYDTVAGADKFGNICVVRLPPNTNDEVDEDPTGNKALWDRGLLNGASQKAEVIMNYHVGETVLSLQKTTLIPGGSESLVYTTLSGGIGILVPFTSHEDHDFFQHVEMHLRSEHPPLCGRDHLSFRSYYFPVKNVIDGDLCEQFNSMEPNKQKNVSEELDRTPPEVSKKLEDIRTRYAF
B4: for the setting “LC-MS value per protein co-immunoprecipitated with DUX4-CTD construct mL1dL2 in MB135 myoblasts, + Dox + IFNG, kind of count not given”, the “4. mL1dL2 + Dox + IFNG” value is 10.

B5: Q3SY84 (protein, UniProt Q3SY84 1-523, looked up)
chain: MSRQFTCKSGAAAKGGFSGCSAVLSGGSSSSFRAGSKGLSGGFGSRSLYSLGGVRSLNVASGSGKSGGYGFGRGRASGFAGSMFGSVALGPVCPTVCPPGGIHQVTVNESLLAPLNVELDPEIQKVRAQEREQIKALNNKFASFIDKVRFLEQQNQVLETKWELLQQLDLNNCKNNLEPILEGYISNLRKQLETLSGDRVRLDSELRNVRDVVEDYKKRYEEEINKRTAAENEFVLLKKDVDAAYANKVELQAKVESMDQEIKFFRCLFEAEITQIQSHISDMSVILSMDNNRNLDLDSIIDEVRTQYEEIALKSKAEAEALYQTKFQELQLAAGRHGDDLKNTKNEISELTRLIQRIRSEIENVKKQASNLETAIADAEQRGDNALKDARAKLDELEGALHQAKEELARMLREYQELMSLKLALDMEIATYRKLLESEECRMSGEFPSPVSISIISSTSGGSVYGFRPSMVSGGYVANSSNCISGVCSVRGGEGRSRGSANDYKDTLGKGSSLSAPSKKTSR
modifications: full-length
Take B5: the “3. + IFNg + Dox longCTD” value was 9 and the “SUM of PSMS” value came out at 30.
